Data published in US20250361296A1.

T1: His-tagged monkey SIGLEC15 protein (fasSIGLEC15-His, ACROBiosystems Inc., Cat #: SG5-C52H6) (monkey)
T1 sequence: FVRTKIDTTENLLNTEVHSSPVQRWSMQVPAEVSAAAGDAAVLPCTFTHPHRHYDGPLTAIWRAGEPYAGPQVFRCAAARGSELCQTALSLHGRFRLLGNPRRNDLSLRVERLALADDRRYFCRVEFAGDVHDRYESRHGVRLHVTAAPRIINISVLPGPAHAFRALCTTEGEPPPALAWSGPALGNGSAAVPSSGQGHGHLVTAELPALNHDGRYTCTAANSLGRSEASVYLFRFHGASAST

B1: anti-SIGLEC15 antibody 10A7 (antibody, human IgG1, V domains shown)
VH: EVQLVQSGGGLVQPGGSLRLSCAASGFTFSNYEMNWVRQAPGKGLEWISYISNSGSTIYYADSVKGRFTISRDDAKNSLYLQMNSLRAEDTAVYYCAREDYDSSGYYWFDPWGQGTPVTVSS
VL: DIQLTQSPSSVSASVGDRVTITCRASQGISSWLAWYQQKPGKAPKLLIYAASSLQSGVPSRFSGSGSGTDFTLTINSLQPEDFATYYCQQTNSFPLTFGGGTKVEIK
B2: anti-SIGLEC15 antibody 10C9 (antibody, human IgG1, V domains shown)
VH: QVQLVQSGAEVKKPGATVKVSCKASGYTFTNYGFSWVRQAPGQGLEWMGWINTYNDNTNYAQKFQGRVTMTTDTSTSTAYMELRSLRSDDTAVYYCARDGLWFGELPHYFDYWGQGTLVTVSS
VL: DIQLTQSPLSSPVTLGQPASISCRSSQSLVNSDGETFLSWLQQRPGQPPRLLIYKISNRFSGVPDRFSGSGAGTDFTLKISRVEAEDVGVYYCMQATQFPHTFGQGTKLEIK

Assays:
[1] = biological target: Macaca fascicularis (crab-eating macaque) SIGLEC15 on CHO-S-fasSIGLEC15 cells (Macaca fascicularis (crab-eating macaque)); experiment: flow cytometry, CHO-S cells expressing the target
[2] = biological target: T1, His-tagged monkey SIGLEC15 protein (fasSIGLEC15-His, ACROBiosystems Inc., Cat #: SG5-C52H6) (monkey); experiment: SPR (Biacore 8K), antibody captured on Protein A chip, His-tagged SIGLEC15 as analyte

Binder | Percentage of Positive Cells [1] | Kd [2] | koff [2] | kon [2]
B1 | 49.3% |  |  | 
B2 | 47.5% | 0.0206 nM | 5.01e-05 s⁻¹ | 2.43e+06 M⁻¹ s⁻¹
